Results reported in patent publication US20260167738A1 (published 2026).
Blank lines part the entries; values can stand above or below the binder they belong to.

How the values were obtained:
[1] = molecular target: CD33ΔE2; experiment: SPR (Biacore)
[2] = molecular target: full-length human CD33 (CD33^FL) (UniProt P20138 18-364); experiment: SPR (Biacore)
Chain of full-length human CD33 (CD33^FL) (P20138 18-364): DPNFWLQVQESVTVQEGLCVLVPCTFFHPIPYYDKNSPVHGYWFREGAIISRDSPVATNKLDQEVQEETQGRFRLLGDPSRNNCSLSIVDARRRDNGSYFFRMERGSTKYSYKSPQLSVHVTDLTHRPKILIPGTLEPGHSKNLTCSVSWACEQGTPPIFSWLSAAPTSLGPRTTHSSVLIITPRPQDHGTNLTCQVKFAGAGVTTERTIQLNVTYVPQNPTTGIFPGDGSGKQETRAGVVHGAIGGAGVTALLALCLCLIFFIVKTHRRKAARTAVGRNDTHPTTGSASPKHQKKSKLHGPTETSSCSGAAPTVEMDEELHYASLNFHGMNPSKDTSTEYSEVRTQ

Kd [1]: 0.136 nM
B1: 1H10 (antibody, V domains shown)
VH: QVQLVQSGAEVKKPGASVKVSCKGSGYIFTSYDMHWVRQAPGQGLEWMGIIDPSGGSTSYAQKFQGRVTMTRDTSMSTVYMELSSLRSEDTAVYYCTRDYSWSYFDYWGQGTLVTVSS
VL: AIQMTQSPSSLSASVGDRVTITCRASQGIRIYLGWYQQKPGKAPKLLIYATSSLQSGVPSRFSGSGSGTDFTLTISSLQPEDFATYYCLQDYNYPWTFGQGTKVEIK

Kd [2]: 3.71 nM
B2: 1H10 antibody (antibody, V domains shown)
VH: B1 VH
VL: B1 VL

Kd [2]: 4.89 nM
B3: 2D3 antibody (antibody, V domains shown)
VH: EVQLLESGGGLVQPGGSLSLSCAASGFTFSIYAMSWVRQAPGKGLEWVSAISDSGGTTYYADSVKGRFTISRDNSKNMLYLEMNSLRAEDTAIYYCAKRTRYFNGMDVWGQGTTVTVSS
VL: EIVMTQSPATLSLSPGERATLSCRASQSGSSSFLSWYQQKPGQAPRLLIYGASTRATGIPARFSGSGSGTDFTLTISSLQPEDFAVYYCQQDYNLPFTFGPGTKVDIK
